Assay results: paper PMC7279388

Target: p65 (UniProt Q04206)
Experiment: anti-FLAG co-IP, anti-p65 blot
Conditions: reference: Flag-WT, IL-1β treated; sites S15

Substance: PRMT5 (from UniProt O14744) Flag-S15A, IL-1β treated
- binding against the reference: weaker
